Several values for one entry are separate records, joined by “and”; a condition that tells them apart may be missing. Equal entries are not always repeated.
Tests used:
[1] = biological target: the molecule itself; assay: MALDI-TOF mass spectrometry; samples obtained after freezing; otherwise as the other MALDI spectra; high-order forms of low intensity
[2] = biological target: the molecule itself; assay: MALDI-TOF mass spectrometry; protein at 0.4 mM desalted on a C4 ZipTip, alpha-CHCA matrix, positive linear mode, 8-190 kDa

B1: ice-binding protein P80961 from longhorn sculpin (Myoxocephalus octodecemspinosus) (natural protein)
chain: MKFSLVATIVLLALAQGSFAQGAADLESLGQYFEEMKTKLIQDMTEIIRSQDLANQAQAFVEDKKTQLQPLVAQIQEQMKTVATNVEEQIRPLTANVQAHLQPQIDNFQKQMEAIIKKLTDQTMAIEN
What does the source list for B1?
stoichiometry N [1]: 5 and 6 and 7; stoichiometry N [2]: 2 and 3 and 4
